These results are taken from patent publication US20090110680A1, “Combination of an anti ED-B fibronectin domain antibody and gemcitabine” (priority 2006, published 2009).

Experiment [1] has as its target T1, ED-B domain of fibronectin (Homo sapiens, UniProt P02751).
T1 construct: The ED-B, a small domain of 91 amino acids
The following applies: cited from earlier work.

For experiment [2], the system named is Capan-1, human pancreas adenocarcinoma xenografts. Kind of experiment: Radiotherapy / combination therapy study in mice bearing human pancreatic tumour xenografts. The following applies: for survival versus untreated control animals: control (36 days). The experiment is classed as in vivo. How it is done: ED-B-fibronectin domain expression in mouse pancreatic tumour models as well in human pancreatic cancer tissue, pancreatitis and normal pancreas was investigated by immunohistochemical analysis. SPECT (=single photon emission computed tomography) imaging was performed in an orthotopic pancreas cancer mouse model (DAN-G human pancreas carcinoma, DMSZ No. ACC249) with the ^99mTc labelled ED-B-fibronectin domain targeting scFv antibody fragment AP39, described in WO 03/055917. In addition MRI imaging was performed. In radiotherapy studies, mice bearing human pancreatic tumour xenografts (Capan-1, human pancreas adenocarcinoma, ATTC-No. HTB-79) were treated with a single dose of either 37 MBq or 74 MBq of ^131I-labelled ED-B-fibronectin domain targeting L19-SIP (=fusion protein). For combination therapy Capan-1 tumour bearing mice received two cycles of gemcitabine (1 g/m^2/week for three weeks with a one-week break), followed by a single dose of 37 MBq ^131I-L19-SIP 24 h after the first injection of gemcitabine. In a first experiment Capan-1 tumour bearing mice received either a single dose of 37 MBq of ^131I labelled ED-B-fibronectin domain targeting L19-SIP, or two cycles of gemcitabine (1 g/m^2/week for three weeks with a one-week break) as stand alone therapies. For combination therapy mice received two cycles of gemcitabine together with a single dose of 37 MBq ^131I-L19-SIP 24 h after the first injection of gemcitabine. In a second experiment Capan-1 tumour bearing mice were treated with a single dose of either 37 MBq or 74 MBq of ^131I labelled ED-B-fibronectin domain targeting L19-SIP (=fusion protein). For combination therapy Capan-1 tumour bearing mice received two cycles of gemcitabine (1 g/m^2/week for three weeks with a one-week break), together with a single dose of 37 MBq 1311-L19-SIP 24 h after the first injection of gemcitabine.
(In general: In xenograft studies the graft and the host belong to different species.)

T1 sequence (P02751 1271-1359 limits assumed): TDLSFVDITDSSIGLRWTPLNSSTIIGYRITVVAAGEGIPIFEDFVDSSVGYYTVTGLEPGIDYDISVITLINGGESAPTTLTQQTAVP

For the molecule “scFv(L19): human single chain Fv antibody fragment specific for the ED-B domain of fibronectin”, the “binding affinity for ED-B” value in experiment [1] is “picomolar”.

With `Nc1ccn([C@@H]2O[C@H](CO)[C@@H](O)C2(F)F)c(=O)n1` [gemcitabine, 2′-deoxy-2′,2′-difluorocytidine], the “survival versus untreated control animals” value in experiment [2] (gemcitabine alone, two cycles (1 g/m^2/week for three weeks, one-week break), Capan-1 tumour bearing mice) is “did not differ from untreated control animals”.

B1: ^131I-L19-SIP (conjugate, chains of the INN, looked up)
VH: EVQLLESGGGLVQPGGSLRLSCAASGFTFSSFSMSWVRQAPGKGLEWVSSISGSSGTTYYADSVKGRFTISRDNSKNTLYLQMNSLRAEDTAVYYCAKPFPYFDYWGQGTLVTVSS
VL: EIVLTQSPGTLSLSPGERATLSCRASQSVSSSFLAWYQQKPGQAPRLLIYYASSRATGIPDRFSGSGSGTDFTLTISRLEPEDFAVYYCQQTGRIPPTFGQGTKVEIK
modifications: small immunoprotein iodine-131 label
Turning to B1, in experiment [2] (37 MBq ^131I-L19-SIP alone, Capan-1 tumour bearing mice), the “survival versus untreated control animals” value is “did not differ from untreated control animals”. Besides, in experiment [2] (37 MBq ^131I-L19-SIP, single dose), the “tumour growth inhibition compared to untreated control tumours” value was “did not result in tumour growth inhibition”. For the same molecule, the median survival in experiment [2] (single dose of 74 MBq ^131I-L19-SIP alone, Capan-1 tumour bearing mice, untreated control 32 days) amounted to 44 days.
